Data taken from the FLAb antibody collection (doi:10.7554/elife.23156).

B1: scFv; the commonest letter at each place (parent)
chain 1: EVKLDETGGGLVQPGRPMKLSCVASGFTFSDYWMNWVRQSPEKGLEWVAQIRNKPYNYETYYSDSVKGRFTISRDDSKSSVYLQMNNLRVEDMGIYYCTGSYYGMDYWGQGTSVTVS
chain 2: DVVMTQTPLSLPVSLGDQASISCRSSQSLVHSNGNTYLRWYLQKPGQSPKVLIYKVSNRFSGVPDRFSGSGSGTDFTLKISRVEAEDLGVYFCSQSTHVPWTFGGGTKLEIK

Columns and labels:
[1] = variants of: B1; test: Kd (Tite-Seq); settings: with fluorescein; format: scFv 4-4-20, heavy + light
[2] = variants of: B1; test: yeast surface expression (ratio to wild type); higher = more expressed; settings: format: scFv 4-4-20, heavy + light

| Variant | Kd [1] [µM] | yeast surface expression [2] |
| --- | --- | --- |
| chain 1 EVKLDETGGGLVQPGRPMKLSCVASGFTFSDYWMNWVRQSPEKGLEWVAQIRNKPYNYETYYSDSVKGRFTISRDDSKSSVYLQMNNLRVEDMGIYYCTGSYYGTDNWGQGTSVTVS chain 2 DVVMTQTPLSLPVSLGDQASISCRSSQSLVHSNGNTYLRWYLQKPGQSPKVLIYKVSNRFSGVPDRFSGSGSGTDFTLKISRVEAEDLGVYFCSQSTHVPWTFGGGTKLEIK [chain 1 M105T Y107N] | ≥ 10 | 0.778 |
| chain 1 EVKLDETGGGLVQPGRPMKLSCVASGFTFSDYWMNWVRQSPEKGLEWVAQIRNKPYNYETYYSDSVKGRFTISRDDSKSSVYLQMNNLRVEDMGIYYCTGSYYGTDRWGQGTSVTVS chain 2 DVVMTQTPLSLPVSLGDQASISCRSSQSLVHSNGNTYLRWYLQKPGQSPKVLIYKVSNRFSGVPDRFSGSGSGTDFTLKISRVEAEDLGVYFCSQSTHVPWTFGGGTKLEIK [chain 1 M105T Y107R] | ≥ 10 | 0.527 |
| chain 1 EVKLDETGGGLVQPGRPMKLSCVASGFTFSDYWMNWVRQSPEKGLEWVAQIRNKPYNYETYYSDSVKGRFTISRDDSKSSVYLQMNNLRVEDMGIYYCTGSYYGVDYWGQGTSVTVS chain 2 DVVMTQTPLSLPVSLGDQASISCRSSQSLVHSNGNTYLRWYLQKPGQSPKVLIYKVSNRFSGVPDRFSGSGSGTDFTLKISRVEAEDLGVYFCSQSTHVPWTFGGGTKLEIK [chain 1 M105V] | 4.25 | 0.993 |
| chain 1 EVKLDETGGGLVQPGRPMKLSCVASGFTFSDYWMNWVRQSPEKGLEWVAQIRNKPYNYETYYSDSVKGRFTISRDDSKSSVYLQMNNLRVEDMGIYYCTGSYYGVEYWGQGTSVTVS chain 2 DVVMTQTPLSLPVSLGDQASISCRSSQSLVHSNGNTYLRWYLQKPGQSPKVLIYKVSNRFSGVPDRFSGSGSGTDFTLKISRVEAEDLGVYFCSQSTHVPWTFGGGTKLEIK [chain 1 M105V D106E] | ≥ 10 | 1.02 |
| chain 1 EVKLDETGGGLVQPGRPMKLSCVASGFTFSDYWMNWVRQSPEKGLEWVAQIRNKPYNYETYYSDSVKGRFTISRDDSKSSVYLQMNNLRVEDMGIYYCTGSYYGVYYWGQGTSVTVS chain 2 DVVMTQTPLSLPVSLGDQASISCRSSQSLVHSNGNTYLRWYLQKPGQSPKVLIYKVSNRFSGVPDRFSGSGSGTDFTLKISRVEAEDLGVYFCSQSTHVPWTFGGGTKLEIK [chain 1 M105V D106Y] | ≥ 10 | 0.489 |
| chain 1 EVKLDETGGGLVQPGRPMKLSCVASGFTFSDYWMNWVRQSPEKGLEWVAQIRNKPYNYETYYSDSVKGRFTISRDDSKSSVYLQMNNLRVEDMGIYYCTGSYYGVDYWIQGTSVTVS chain 2 DVVMTQTPLSLPVSLGDQASISCRSSQSLVHSNGNTYLRWYLQKPGQSPKVLIYKVSNRFSGVPDRFSGSGSGTDFTLKISRVEAEDLGVYFCSQSTHVPWTFGGGTKLEIK [chain 1 M105V G109I] | ≥ 10 | 0.203 |
| chain 1 EVKLDETGGGLVQPGRPMKLSCVASGFTFSDYWMNWVRQSPEKGLEWVAQIRNKPYNYETYYSDSVKGRFTISRDDSKSSVYLQMNNLRVEDMGIYYCTGSYYGVDYWYQGTSVTVS chain 2 DVVMTQTPLSLPVSLGDQASISCRSSQSLVHSNGNTYLRWYLQKPGQSPKVLIYKVSNRFSGVPDRFSGSGSGTDFTLKISRVEAEDLGVYFCSQSTHVPWTFGGGTKLEIK [chain 1 M105V G109Y] | ≥ 10 | 0.227 |
| chain 1 EVKLDETGGGLVQPGRPMKLSCVASGFTFSDYWMNWVRQSPEKGLEWVAQIRNKPYNYETYYSDSVKGRFTISRDDSKSSVYLQMNNLRVEDMGIYYCTGSYYGVDYAGQGTSVTVS chain 2 DVVMTQTPLSLPVSLGDQASISCRSSQSLVHSNGNTYLRWYLQKPGQSPKVLIYKVSNRFSGVPDRFSGSGSGTDFTLKISRVEAEDLGVYFCSQSTHVPWTFGGGTKLEIK [chain 1 M105V W108A] | ≥ 10 | 0.434 |
| chain 1 EVKLDETGGGLVQPGRPMKLSCVASGFTFSDYWMNWVRQSPEKGLEWVAQIRNKPYNYETYYSDSVKGRFTISRDDSKSSVYLQMNNLRVEDMGIYYCTGSYYGVDYCGQGTSVTVS chain 2 DVVMTQTPLSLPVSLGDQASISCRSSQSLVHSNGNTYLRWYLQKPGQSPKVLIYKVSNRFSGVPDRFSGSGSGTDFTLKISRVEAEDLGVYFCSQSTHVPWTFGGGTKLEIK [chain 1 M105V W108C] | 6.61 | 0.461 |
| chain 1 EVKLDETGGGLVQPGRPMKLSCVASGFTFSDYWMNWVRQSPEKGLEWVAQIRNKPYNYETYYSDSVKGRFTISRDDSKSSVYLQMNNLRVEDMGIYYCTGSYYGVDYDGQGTSVTVS chain 2 DVVMTQTPLSLPVSLGDQASISCRSSQSLVHSNGNTYLRWYLQKPGQSPKVLIYKVSNRFSGVPDRFSGSGSGTDFTLKISRVEAEDLGVYFCSQSTHVPWTFGGGTKLEIK [chain 1 M105V W108D] | ≥ 10 | 0.437 |
| chain 1 EVKLDETGGGLVQPGRPMKLSCVASGFTFSDYWMNWVRQSPEKGLEWVAQIRNKPYNYETYYSDSVKGRFTISRDDSKSSVYLQMNNLRVEDMGIYYCTGSYYGVDYHGQGTSVTVS chain 2 DVVMTQTPLSLPVSLGDQASISCRSSQSLVHSNGNTYLRWYLQKPGQSPKVLIYKVSNRFSGVPDRFSGSGSGTDFTLKISRVEAEDLGVYFCSQSTHVPWTFGGGTKLEIK [chain 1 M105V W108H] | ≥ 10 | 0.493 |
| chain 1 EVKLDETGGGLVQPGRPMKLSCVASGFTFSDYWMNWVRQSPEKGLEWVAQIRNKPYNYETYYSDSVKGRFTISRDDSKSSVYLQMNNLRVEDMGIYYCTGSYYGVDAWGQGTSVTVS chain 2 DVVMTQTPLSLPVSLGDQASISCRSSQSLVHSNGNTYLRWYLQKPGQSPKVLIYKVSNRFSGVPDRFSGSGSGTDFTLKISRVEAEDLGVYFCSQSTHVPWTFGGGTKLEIK [chain 1 M105V Y107A] | ≥ 10 | 0.758 |
